Results taken from patent publication US20060253917A1 (published 2006).
Each block holds one binder with its values, some of them ahead of it.

How the values were obtained:
[1] = target: T1, OsPN29956 aa 96-235 (Oryza sativa, UniProt Q0JJ05 613-752); assay: Y2H; output trait library
T1 construct: prey, AD fusion; also called Novel Protein PN29956, Fragment, nuclear matrix constituent
T1 sequence: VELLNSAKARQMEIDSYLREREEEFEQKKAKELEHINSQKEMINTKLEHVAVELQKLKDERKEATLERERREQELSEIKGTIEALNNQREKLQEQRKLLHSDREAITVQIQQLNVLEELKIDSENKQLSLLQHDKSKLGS
How it was run: (§1)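 Myriad Genetics Inc. (Salt Lake City, Utah) supplied the automated, high-throughput yeast two-hybrid assay used to detect protein-protein interactions. A bait clone encoding a defined amino-acid fragment of a rice protein was screened against a rice prey library, either the input trait or the output trait library. To identify the interacting proteins, prey clones were retrieved and their encoding sequences were compared against databases by BLAST.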

[2] = target: T2, OsPN23390 aa 595-845 (Oryza sativa, UniProt Q7XPJ0 617-867); assay: Y2H; output trait library
T2 construct: prey, AD fusion
T2 sequence: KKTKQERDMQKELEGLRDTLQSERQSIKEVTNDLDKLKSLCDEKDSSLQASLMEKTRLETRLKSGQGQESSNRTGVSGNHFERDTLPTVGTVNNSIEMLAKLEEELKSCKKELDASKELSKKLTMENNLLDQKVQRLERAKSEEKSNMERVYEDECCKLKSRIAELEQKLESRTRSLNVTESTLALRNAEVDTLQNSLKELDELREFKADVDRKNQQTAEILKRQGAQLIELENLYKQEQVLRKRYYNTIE
How it was run: as §1

[3] = target: T3, OsPN23390 aa 576-738 (Oryza sativa, UniProt Q7XPJ0 598-760); assay: Y2H; output trait library
T3 construct: prey, AD fusion
T3 sequence: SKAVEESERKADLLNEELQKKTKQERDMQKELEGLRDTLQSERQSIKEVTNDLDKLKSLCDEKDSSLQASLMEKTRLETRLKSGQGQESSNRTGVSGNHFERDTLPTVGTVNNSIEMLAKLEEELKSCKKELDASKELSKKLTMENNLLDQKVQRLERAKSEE
How it was run: as §1

[4] = target: T4, PN29970 aa 1-158 (Oryza sativa, UniProt A2WY50 120-277); assay: Y2H; output trait library
T4 construct: prey, AD fusion; also called Putative CorA-like Mg2+ Transporter Protein
T4 sequence: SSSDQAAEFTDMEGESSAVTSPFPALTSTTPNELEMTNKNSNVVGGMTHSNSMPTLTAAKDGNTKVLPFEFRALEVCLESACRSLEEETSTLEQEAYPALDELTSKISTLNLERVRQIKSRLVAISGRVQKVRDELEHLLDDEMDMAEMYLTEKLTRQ
How it was run: as §1

[5] = target: T5, OsPN25381 aa 30-218 (Oryza sativa, UniProt A3BV82 165-353); assay: Y2H; output trait library
T5 construct: prey, AD fusion; also called Protein 13357265 Putative CorA-like Mg2+ Transporter Protein
T5 sequence: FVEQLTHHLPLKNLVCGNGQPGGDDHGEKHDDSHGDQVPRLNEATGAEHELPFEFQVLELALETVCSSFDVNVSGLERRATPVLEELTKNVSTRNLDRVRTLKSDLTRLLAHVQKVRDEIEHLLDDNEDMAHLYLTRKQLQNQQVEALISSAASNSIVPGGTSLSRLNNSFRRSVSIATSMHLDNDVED
How it was run: as §1

[6] = target: T6, OsPN29965 aa 12-124 (Oryza sativa, UniProt Q6YZ52 874-986); assay: Y2H; output trait library
T6 construct: prey, AD fusion; also called Novel Protein PN29965, Fragment, Similar to A. thaliana Kinesin (Centromere Protein)-Like Heavy Chain-Like Protein
T6 sequence: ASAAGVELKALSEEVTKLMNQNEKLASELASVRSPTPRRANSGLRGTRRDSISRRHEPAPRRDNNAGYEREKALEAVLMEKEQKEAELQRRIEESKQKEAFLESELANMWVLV
How it was run: as §1

[7] = target: T7, OsPN29969 aa 16-123 (Oryza sativa, UniProt A2XK00 17-123); assay: Y2H; output trait library
T7 construct: prey, AD fusion; also called Novel Protein PN29969, Similar to A. thaliana Unknown Protein BAB01990
T7 sequence: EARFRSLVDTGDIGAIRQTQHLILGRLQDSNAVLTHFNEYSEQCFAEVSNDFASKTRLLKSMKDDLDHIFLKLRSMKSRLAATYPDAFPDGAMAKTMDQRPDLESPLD
How it was run: as §1

[8] = target: T8, OsPN29956 aa 2-373 (Oryza sativa, UniProt Q0JJ05 519-890); assay: Y2H; output trait library
T8 construct: prey, AD fusion
T8 sequence: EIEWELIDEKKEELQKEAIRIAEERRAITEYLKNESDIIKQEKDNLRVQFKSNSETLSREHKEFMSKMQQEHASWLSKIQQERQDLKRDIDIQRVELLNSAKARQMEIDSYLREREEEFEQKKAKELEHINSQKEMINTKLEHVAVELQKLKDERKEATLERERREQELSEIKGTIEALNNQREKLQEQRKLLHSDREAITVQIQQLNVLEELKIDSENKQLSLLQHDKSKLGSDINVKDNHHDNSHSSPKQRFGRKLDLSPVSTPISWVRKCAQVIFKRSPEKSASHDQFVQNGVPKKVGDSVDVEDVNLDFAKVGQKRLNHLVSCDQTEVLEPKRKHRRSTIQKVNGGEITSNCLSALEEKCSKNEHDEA
How it was run: as §1

[9] = target: T9, OsMADS1 aa 74-172 (Oryza sativa, UniProt A2XDY1 74-172); assay: Y2H; input trait library
T9 construct: prey, AD fusion; also called PN19788
T9 sequence: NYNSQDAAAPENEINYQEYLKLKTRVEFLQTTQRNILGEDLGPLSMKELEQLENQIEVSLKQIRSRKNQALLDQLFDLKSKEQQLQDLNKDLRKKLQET
How it was run: as §1

[10] = target: T10, OsMADS1 aa 82-241 (Oryza sativa, UniProt A2XDY1 82-241); assay: Y2H; output trait library
T10 construct: prey, AD fusion; also called PN19788; O. sativa MADS box protein MADS1
T10 sequence: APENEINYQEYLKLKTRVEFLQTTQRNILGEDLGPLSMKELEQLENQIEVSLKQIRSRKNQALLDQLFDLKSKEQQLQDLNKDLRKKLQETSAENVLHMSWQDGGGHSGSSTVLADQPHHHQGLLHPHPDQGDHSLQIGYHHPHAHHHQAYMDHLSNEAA
How it was run: as §1

[11] = target: T11, OsMADS1 aa 71-257 (Oryza sativa, UniProt A2XDY1 71-257); assay: Y2H; output trait library
T11 construct: prey, AD fusion; also called PN19788
T11 sequence: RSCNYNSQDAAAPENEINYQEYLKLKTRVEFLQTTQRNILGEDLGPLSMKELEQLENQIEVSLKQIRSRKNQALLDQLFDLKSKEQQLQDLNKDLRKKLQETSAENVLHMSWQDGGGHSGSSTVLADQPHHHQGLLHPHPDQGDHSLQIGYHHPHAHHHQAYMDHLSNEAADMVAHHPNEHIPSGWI
How it was run: as §1

[12] = target: T12, OsMADS6 aa 70-250 (Oryza sativa, UniProt Q6EU39 70-250); assay: Y2H; output trait library
T12 construct: prey, AD fusion; also called PN20233; O. sativa MADS box protein MADS6
T12 sequence: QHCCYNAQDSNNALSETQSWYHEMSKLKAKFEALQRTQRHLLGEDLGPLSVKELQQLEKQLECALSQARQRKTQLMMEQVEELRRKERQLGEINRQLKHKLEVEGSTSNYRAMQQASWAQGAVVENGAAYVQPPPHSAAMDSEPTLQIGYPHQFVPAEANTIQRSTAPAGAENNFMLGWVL
How it was run: as §1

[13] = target: T13, OsFDRMADS6 aa 93-244 (Oryza sativa, UniProt P0C5B1 93-244); assay: Y2H; output trait library
T13 construct: prey, AD fusion; also called PN19766
T13 sequence: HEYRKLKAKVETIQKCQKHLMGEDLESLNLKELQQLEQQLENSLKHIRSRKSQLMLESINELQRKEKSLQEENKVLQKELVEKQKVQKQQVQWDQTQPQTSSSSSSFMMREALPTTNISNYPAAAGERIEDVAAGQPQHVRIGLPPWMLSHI
How it was run: as §1

[14] = target: T14, OsRAP1B aa 1-158 (Oryza sativa, UniProt Q10CQ1 1-158); assay: Y2H; output trait library
T14 construct: prey, AD fusion; also called PN20232; O. sativa AP1-like MADS box protein RAP1B
T14 sequence: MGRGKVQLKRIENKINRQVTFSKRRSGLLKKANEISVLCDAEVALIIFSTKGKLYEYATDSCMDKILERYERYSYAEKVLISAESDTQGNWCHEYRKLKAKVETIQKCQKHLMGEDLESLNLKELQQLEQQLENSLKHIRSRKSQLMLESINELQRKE
How it was run: as §1

[15] = target: T15, OsMADS1 aa 95-257 (Oryza sativa, UniProt A2XDY1 95-257); assay: Y2H; input trait library
T15 construct: prey, AD fusion; also called PN19788
T15 sequence: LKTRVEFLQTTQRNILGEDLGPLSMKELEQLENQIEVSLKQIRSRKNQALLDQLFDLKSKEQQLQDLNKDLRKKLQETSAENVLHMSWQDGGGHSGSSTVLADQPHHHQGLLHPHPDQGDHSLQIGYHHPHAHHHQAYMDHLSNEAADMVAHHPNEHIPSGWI
How it was run: as §1

[16] = target: T16, OsFDRMADS8 aa 69-233 (Oryza sativa, UniProt A2Z9Q7 69-233); assay: Y2H; input trait library
T16 construct: prey, AD fusion; also called PN20698
T16 sequence: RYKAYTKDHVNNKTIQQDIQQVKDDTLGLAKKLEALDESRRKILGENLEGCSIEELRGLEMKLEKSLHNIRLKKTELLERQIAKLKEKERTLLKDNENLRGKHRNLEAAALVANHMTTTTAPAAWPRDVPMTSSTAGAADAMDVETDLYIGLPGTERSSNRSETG
How it was run: as §1

[17] = target: T17, OsMADS8 aa 127-248 (Oryza sativa, UniProt Q9SAR1 127-248); assay: Y2H; output trait library
T17 construct: prey, AD fusion; also called PN20778
T17 sequence: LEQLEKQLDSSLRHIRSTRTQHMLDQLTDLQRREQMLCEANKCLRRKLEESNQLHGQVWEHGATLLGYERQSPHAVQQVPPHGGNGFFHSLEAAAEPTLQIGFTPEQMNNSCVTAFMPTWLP
How it was run: as §1

[18] = target: T18, OsFDRMADS8 aa 94-230 (Oryza sativa, UniProt A2Z9Q7 94-230); assay: Y2H; output trait library
T18 construct: prey, AD fusion; also called PN20698
T18 sequence: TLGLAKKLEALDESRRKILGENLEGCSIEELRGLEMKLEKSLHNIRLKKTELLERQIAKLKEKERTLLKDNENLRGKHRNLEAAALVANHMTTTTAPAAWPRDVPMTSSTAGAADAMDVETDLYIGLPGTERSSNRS
How it was run: as §1

[19] = target: T19, OsFDRMADS6 aa 100-246 (Oryza sativa, UniProt P0C5B1 100-246); assay: Y2H; output trait library
T19 construct: prey, AD fusion; also called PN19766
T19 sequence: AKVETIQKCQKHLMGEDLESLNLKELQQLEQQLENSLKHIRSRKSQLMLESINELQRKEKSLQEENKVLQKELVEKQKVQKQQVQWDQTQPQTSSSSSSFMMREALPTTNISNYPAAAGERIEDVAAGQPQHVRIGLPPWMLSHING
How it was run: as §1

- binding result [1]: binds
- binding result [2]: binds
- binding result [3]: binds
- binding result [4]: binds
- binding result [5]: binds
- binding result [6]: binds
- binding result [7]: binds
- binding result [8]: binds
B1: OsCYCOS2 aa 50-233 (other)
chain: KRGLLDKPAAKNQSGHRPMTRKFAATLANQPSIAPLAPIGSERQKRTADSAFHGPADMECTKITSDDLPLPMMSEMDEVMGSELKEIEMEDIEEAAPDIDSCDANNSLAVVEYVDEIYSFYRRSEGLSCVSPNYMLSQNDINEKMRGILIDWLIEVHYKLELLDETLFLTVNIIDRFLARENVV
notes: bait, Gal4 DBD fusion; also called PN20257; O. sativa Cyclin OsCYCOS2

- binding result [9]: binds
B2: OsRAP1B aa 65-200 (other)
chain: KILERYERYSYAEKVLISAESDTQGNWCHEYRKLKAKVETIQKCQKHLMGEDLESLNLKELQQLEQQLENSLKHIRSRKSQLMLESINELQRKEKSLQEENKVLQKELVEKQKVQKQQLQWDQTQPQTISSSSSFM
notes: bait, Gal4 DBD fusion; also called PN20232

- binding result [10]: binds
- binding result [11]: binds
- binding result [12]: binds
- binding result [13]: binds
- binding result [14]: binds
B3: OsMADS45 aa 50-198 (other)
chain: NRGKLYEFCSTQSMTKTLEKYQKCSYAGPETAVQNRESEQLKASRNEYLKLKARVENLQRTQRNLLGEDLDSLGIKELESLEKQLDSSLKHVRTTRTKHLVDQLTELQRKEQMVSEANRCLRRKLEESNHVRGQQVWEQGCNLIGYERQ
notes: bait, Gal4 DBD fusion; also called PN20231; O. sativa MADS box protein MADS45

- binding result [15]: binds
- binding result [16]: binds
- binding result [17]: binds
- binding result [18]: binds
- binding result [19]: binds
B4: OsRAP1B aa 100-247 (other)
chain: AKVETIQKCQKHLMGEDLESLNLKELQQLEQQLENSLKHIRSRKSQLMLESINELQRKEKSLQEENKVLQKELVEKQKVQKQQLQWDQTQPQTISSSSSFMMREALPTTNISNYPAAAGERIEDVPAGQPQHVRIGLPPWMLSHING
notes: as for B2
